Test results from US10208121B2, “Anti-Axl antagonistic antibodies” (BERGEN TEKNOLOGIOVERFORING AS, priority 2014, dated 2019).
Entries after “also recorded” stand apart in the source; their conditions may differ.

B1: 10G5: mouse anti-Axl monoclonal antibody from hybridoma WR-10G5-E5, IgG1; VH SEQ ID NO: 21, VL SEQ ID NO: 22 (antibody, listed as Mus musculus, V domains shown)
VH: QVQLQQSGAELVRPGASVKLSCKASGYSFTDFYINWVRQRPGQGLEWIARIFPGGDNTYYNEKFKGKATLTAEESSSTAYIQLSSLTSEDSAVYFCARRGLYYAMDYWGQGISVTVSS
VL: DVLMTQTPLSLPVSLGDQASISCRSSQSLVHSNGIPYLHWYLQKPGQSPKLLIYRVSNRFSGVPDRFSGSGSGTDFTLKISRVEAEDLGVYFCSQGTHVPPTFGGGTKLEIK
B2: 10C9: mouse anti-Axl monoclonal antibody from hybridoma UT-10C9-B9, IgG2b; VH SEQ ID NO: 3, VL SEQ ID NO: 4 (antibody, listed as Mus musculus, V domains shown)
VH: QVQLQQPGPELVKPGASVKISCKTSDYNFTRYYIHWVKQRPGQGLEWIGWIYPGTGDSKYNEKFKGRATLTADTSSSTAYMQLSSQTSEDSAVYFCARNGNYWYFDVWGAGTAVTVSS
VL: DIVMTQAAPSGPVTPGESVSISCRSSKSLLHSNGNTYLYWFLQRPGQSPQLLIYRMSNLASGVPDRFSGSGSGTAFTLRISRVEAEDVGIYYCMQHREYPFTFGGGTKLEIK

Experiments:
Axl receptor protein = target: T1, Axl receptor protein (Homo sapiens, UniProt P30530); assay: Western blot analysis of Axl receptor protein expression after antibody treatment; type: cell-based; conditions: MDA-MB-231 cells, 100 μg/mL, 20 hrs, versus irrelevant IgG or MAb#3
T1 construct: endogenous in cells; host or cells: MDA-MB-231
Protocol: Western blot analysis illustrating effect of treatment with either antibodies of multikinase inhibitor Foretinib on Axl receptor expression. Highly aggressive human mammary carcinoma cells MDA-MB-231 were treated with either antibodies (irrelevant IgG control and anti-Axl MAbs 10C9, 10G5 and MAb#3) or Foretinib for […] before loading on SDS-PAA gel. The levels of actin protein were used as loading controls.
The expression of Axl receptor protein in MBA-MD-231 cells treated with different antibodies was examined by Western blot analysis. The cells were seeded in a 6-well plate at density of 5×10^5 cells per well and cultured overnight before treatment initiation. The cells were treated for 20 hrs in the presence of isotype control (mouse IgG2b), anti-Axl antibodies (10C9, 10G5 and MAb#3) at concentrations of 100 μg/mL or multikinase inhibitor Foretinib (targets Met, Ron, Axl, Tie-2, and VEGFR2) at a concentration of 0.5 μM followed by harvesting by centrifugation at 1,200 rpm for 5 min and washing with sterile PBS. The cells were collected by centrifugation and resuspended in NP40-lysis buffer followed by 30 min incubation on ice. The cell lysates were cleared by centrifugation (12,000 rpm, 4° C., 5 min) and the protein concentrations were determined using BCA protein assay. […]

rhAxl-Fc = target: T2, rhAxl-Fc (Homo sapiens, UniProt P30530); assay: Biacore competitive binding study on rhAxl-Fc (two sample injection); conditions: for competition for Axl binding with control antibody MAB154 / inhibition of Gas6 binding to Axl: rhAxl saturated with antibody; for competition for Axl binding with control antibody MAB154: then MAB154 at 25 μg/mL; for inhibition of Gas6 binding to Axl: then rhGas6 or rmGas6 at 25 μg/mL; for blocking of binding of the other antibody (10C9 / 10G5) to Axl: rhAxl saturated with first antibody, second antibody at 25 μg/mL
T2 construct: Soluble recombinant antigens corresponding to the extracellular domains of members of the human TAM receptor family; purchased R&D Systems 154-AL
Protocol: A competitive binding study was performed using Biacore 3000 instrument (GE Healthcare) and Binding Analysis wizard with several cycles of two samples injection. As a first sample, a saturating concentration of MAb 10C9 (790 nM or 120 μg/mL) or 10G5 (160 nM or 24 μg/mL) was injected over the surface of a CM5 sensor chip coated with rhAxl-Fc (using amine coupling) for 3 min at flow rate of 30 μL/min followed by 2.5 min stabilization (HBS-EP buffer alone) before the injection of the second sample. The following second samples were used: recombinant human (rh) Gas6 (R&D Systems, Cat. no. 885-GS), recombinant mouse (rm) Gas6 (R&D Systems, Cat. no. 986-GS/CF) and a panel of anti-Axl antibodies, such as MAB154 (R&D Systems, Cat. no. MAB154), 10C9 and 10G5; all at concentration 25 μg/mL. The second sample was injected for 3 min, followed by 2.5 min stabilization (buffer alone) and regeneration of the surface by 30 sec injection of a regeneration solution (10 mM HCl, 1 M NaCl) at flow rate 50 μL/min.

MDA-MB-231 = assay: Growth of MDA-MB-231 cells in three-dimensional (3D) organotypic model; type: cell-based, human; conditions: for growth and tumour mass development in extracellular matrix: MDA-MB-231, 50-100 μg/mL, day 6, versus control irrelevant IgG
Protocol: A highly aggressive triple-negative human breast cancer cell line MDA-MB-231 (ATCC® HTB-26™) was cultured according to recommended conditions in Dulbecco's Modified Eagle's Medium/Nutrient Mixture F-12 Ham medium supplemented with 10% foetal bovine serum (FBS), glutamine and penicillin and streptomycin. The cells were pre-treated in suspension for at least 1 hour at 37° C., to ensure proper binding of antibodies on the cell surface before they were placed in extracellular matrix. The cells cultures were observed every day and fresh treatments were done every other day. The antibodies were used at concentrations 50-100 μg/mL. Imaging of coverslip 3D assay (35 mm dish) was done on a NIKON light microscopy using both Phase contrast and Hoffman optics. Already at day 3, difference in growth of cells treated with either MAb 10C9 or MAb10G5 and cells treated with a control irrelevant IgG was observed.

MDA-MB-231 cells = assay: Treatment of established stellate-shaped 3D tumour masses; type: cell-based, human; conditions: MDA-MB-231, 72 hours, versus control IgG
Protocol: Effect of anti-Axl antibodies 10C9 and 10G5 on established 3D organotypic tumour masses. The developed 9-days old stellate-shaped 3D organoid masses of human mammary carcinoma cells (MDA-MB-231) were treated with either control IgG or anti-Axl antibodies 10C9 and 10G5 for 72 hours. Images were captured using bright field; arrows indicate apoptotic, degrading stellate-shaped cells.
MDA-MB-231 cells were grown on extracellular matrix and allowed to form the highly aggressive stellate shaped morphology. Stellate-shaped tumour masses were then treated with the control IgG and antibodies 10C9 and 10G5, as described in EXAMPLE 7.

Molecule	Axl protein level (Western blot) (Axl receptor protein)	competition for Axl binding with control antibody MAB154 (rhAxl-Fc)	inhibition of Gas6 binding to Axl (rhAxl-Fc)	blocking of binding of the other antibody (10C9 / 10G5) to Axl (rhAxl-Fc)	viability of treated cells (nuclei staining) (MDA-MB-231; MDA-MB-231 3D culture)	growth and tumour mass development in extracellular matrix (MDA-MB-231)	effect on established stellate-shaped 3D tumour masses (MDA-MB-231 cells)
B1	significant reduction of Axl protein	did not compete	inhibit the binding of Axl to its ligand Gas6; also recorded: inhibited Axl binding by its ligand Gas6	blocked binding of each other	still viable	significantly inhibited growth and tumour mass development	degradation of stellate patterns
B2	significant reduction in the amount of Axl receptor protein	did no inhibit; also recorded: did not compete	inhibit the binding of Axl to its ligand Gas6; also recorded: cannot be bound; also recorded: inhibited Axl binding by its ligand Gas6	cannot be bound; also recorded: blocked binding of each other	–	significantly inhibited growth and tumour mass development	degradation of stellate patterns
